Patent US20050079559

Target: bacterial recombinant GST-Smad3 (UniProt P84022)
Sequence (P84022 whole entry, looked up): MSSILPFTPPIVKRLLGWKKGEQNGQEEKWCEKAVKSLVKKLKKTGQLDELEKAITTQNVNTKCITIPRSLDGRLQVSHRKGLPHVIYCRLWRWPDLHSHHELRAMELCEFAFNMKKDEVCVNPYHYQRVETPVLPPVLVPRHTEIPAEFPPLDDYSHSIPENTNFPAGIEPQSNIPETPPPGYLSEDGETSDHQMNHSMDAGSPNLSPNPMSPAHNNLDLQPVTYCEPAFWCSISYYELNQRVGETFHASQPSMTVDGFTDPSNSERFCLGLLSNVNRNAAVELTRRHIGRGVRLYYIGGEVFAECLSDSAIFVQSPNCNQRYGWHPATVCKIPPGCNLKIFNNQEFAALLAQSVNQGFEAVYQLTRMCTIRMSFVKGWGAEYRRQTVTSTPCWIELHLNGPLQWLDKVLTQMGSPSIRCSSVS

| Substance | phosphorylation of recombinant Smad3 in an in vitro kinase assay, detected by immunoblotting |
| --- | --- |
| phosphorylated (active) p38 | the linker region of Smad3 was directly phosphorylated by p38 and JNK |
| phosphorylated (active) JNK | the linker region of Smad3 was directly phosphorylated by p38 and JNK |
